From patent US20020151484A1 (HYBRIGENICS, published 2002) come the findings set out here.

Common to all, as to assay: yeast two-hybrid, mating, His3/LacZ reporters
Assay [1] deals with T1, Bait polypeptide of SEQ ID No 78, Core (100%), HCV strain H77 nt 342-683 (hepatitis C virus strain H77, UniProt P27958 1-113).
T1 construct: also called Bait Core (100%)
T1 sequence: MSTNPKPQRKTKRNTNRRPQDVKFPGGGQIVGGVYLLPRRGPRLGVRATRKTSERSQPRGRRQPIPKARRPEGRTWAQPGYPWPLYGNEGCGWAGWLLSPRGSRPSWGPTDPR

The target of assay [2] is T2, Bait polypeptide of SEQ ID No 87, NS3 (100%), HCV strain H77 nt 4238-4857 (hepatitis C virus strain H77, UniProt P27958 1300-1504).
T2 construct: also called Bait NS3 (100%)
T2 chain: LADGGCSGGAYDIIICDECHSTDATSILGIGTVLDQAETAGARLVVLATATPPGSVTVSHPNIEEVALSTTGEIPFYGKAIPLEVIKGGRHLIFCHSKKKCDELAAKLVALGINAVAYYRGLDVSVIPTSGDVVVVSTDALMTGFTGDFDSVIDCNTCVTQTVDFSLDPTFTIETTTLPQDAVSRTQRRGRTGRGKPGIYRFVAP

In assay [3] the target is T3, Bait polypeptide of SEQ ID No 90, NS3 (100%), HCV strain H77 nt 4838-5230 (hepatitis C virus strain H77, UniProt P26664 1500-1628).
T3 construct: also called Bait NS3 (100%)
T3 chain: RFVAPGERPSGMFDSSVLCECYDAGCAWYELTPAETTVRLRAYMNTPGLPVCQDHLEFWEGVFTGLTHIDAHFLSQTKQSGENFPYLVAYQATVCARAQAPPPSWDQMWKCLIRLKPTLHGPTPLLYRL

Assay [4] concerns the target T4, Bait polypeptide of SEQ ID No 95, NS4B (55%)/NS5A (44%), HCV strain H77 nt 5882-6562 (hepatitis C virus strain H77, UniProt P26664 1848-2072).
T4 construct: also called Bait NS4B (55%)/NS5A (44%)
T4 chain: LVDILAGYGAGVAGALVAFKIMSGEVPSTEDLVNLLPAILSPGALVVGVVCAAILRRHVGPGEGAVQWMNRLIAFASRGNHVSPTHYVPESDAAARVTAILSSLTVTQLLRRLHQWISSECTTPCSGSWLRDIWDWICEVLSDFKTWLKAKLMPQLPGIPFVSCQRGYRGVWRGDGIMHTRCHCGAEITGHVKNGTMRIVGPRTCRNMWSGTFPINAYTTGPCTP

Assay [5] has as its target T5, Bait polypeptide of SEQ ID No 97, NS4B (100%), HCV strain H77 nt 6011-6177 (hepatitis C virus strain H77, UniProt O92972 1891-1944).
T5 construct: also called Bait NS4B (100%)
T5 sequence: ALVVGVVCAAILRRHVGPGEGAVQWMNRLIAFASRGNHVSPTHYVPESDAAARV

In assay [6] the target is T6, SID polypeptide of SEQ ID No 16, NS4B (100%), HCV strain H77 nt 5918-6154 (hepatitis C virus strain H77, UniProt P26664 1860-1936).
T6 construct: Intersection of yeast two-hybrid prey fragments; also called SID NS4B (100%)
T6 sequence: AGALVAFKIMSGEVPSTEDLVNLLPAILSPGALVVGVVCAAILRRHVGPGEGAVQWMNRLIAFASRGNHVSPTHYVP

The target in assay [7] is T7, Bait polypeptide of SEQ ID No 102, NS5A (100%), HCV strain H77 nt 6317-6576 (hepatitis C virus strain H77, UniProt P26664 1993-2077).
T7 construct: also called Bait NS5A (100%)
T7 chain: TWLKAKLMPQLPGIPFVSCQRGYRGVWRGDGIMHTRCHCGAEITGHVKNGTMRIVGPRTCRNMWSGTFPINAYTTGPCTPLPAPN

In assay [8] the target is T8, Bait polypeptide of SEQ ID No 77, Core (87%), HCV strain H77 nt 302-614 (hepatitis C virus strain H77).
T8 construct: also called Bait Core (87%)
T8 chain: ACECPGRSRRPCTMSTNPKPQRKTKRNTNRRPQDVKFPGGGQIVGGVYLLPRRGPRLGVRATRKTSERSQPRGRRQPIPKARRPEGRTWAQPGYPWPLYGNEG

Assay [9] addresses T9, Bait polypeptide of SEQ ID No 100, NS4B (8%)/NS5A (91%), HCV strain H77 nt 6182-7034 (hepatitis C virus strain H77, UniProt P27958 1948-2230).
T9 construct: also called Bait NS4B (8%)/NS5A (91%)
T9 chain: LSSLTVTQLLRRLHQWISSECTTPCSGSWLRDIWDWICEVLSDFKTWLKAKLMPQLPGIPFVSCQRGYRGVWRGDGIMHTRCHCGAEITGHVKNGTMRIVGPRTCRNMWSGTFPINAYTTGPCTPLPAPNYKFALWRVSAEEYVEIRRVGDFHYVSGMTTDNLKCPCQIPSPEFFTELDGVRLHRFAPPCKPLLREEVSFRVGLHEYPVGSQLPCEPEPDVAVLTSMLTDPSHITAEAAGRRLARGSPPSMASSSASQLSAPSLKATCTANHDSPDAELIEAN

The target in assay [10] is T10, Bait polypeptide of SEQ ID No 96, NS4B (82%)/NS5A(17%), HCV strain H77 nt 5897-6335 (hepatitis C virus strain H77, UniProt P26664 1853-1997).
T10 construct: also called Bait NS4B (82%)/NS5A(17%)
T10 sequence: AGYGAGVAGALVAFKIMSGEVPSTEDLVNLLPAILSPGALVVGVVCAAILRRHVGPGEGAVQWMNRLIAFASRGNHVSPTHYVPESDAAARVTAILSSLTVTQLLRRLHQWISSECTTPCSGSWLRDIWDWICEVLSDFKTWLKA

Assay [11] concerns the target T11, SID polypeptide of SEQ ID No 23, NS4B (100%), HCV strain H77 nt 5879-6072 (hepatitis C virus strain H77, UniProt Q913V3 1847-1909).
T11 construct: Intersection of yeast two-hybrid prey fragments; also called SID NS4B (100%)
T11 sequence: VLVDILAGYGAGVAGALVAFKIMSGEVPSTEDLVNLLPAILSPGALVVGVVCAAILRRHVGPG

Assay [12] addresses T12, SID polypeptide of SEQ ID No 28, NS5A (100%), HCV strain H77 nt 6557-6721 (hepatitis C virus strain H77, UniProt P27958 2073-2125).
T12 construct: Intersection of yeast two-hybrid prey fragments; also called SID NS5A (100%)
T12 sequence: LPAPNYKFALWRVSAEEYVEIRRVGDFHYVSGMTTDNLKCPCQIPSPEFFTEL

For assay [13], the target named is T13, Bait polypeptide of SEQ ID No 93, NS4B (86%)/NS5A (13%), HCV strain H77 nt 5717-6344 (hepatitis C virus strain H77, UniProt P26664 1793-2000).
T13 construct: also called Bait NS4B (86%)/NS5A (13%)
T13 chain: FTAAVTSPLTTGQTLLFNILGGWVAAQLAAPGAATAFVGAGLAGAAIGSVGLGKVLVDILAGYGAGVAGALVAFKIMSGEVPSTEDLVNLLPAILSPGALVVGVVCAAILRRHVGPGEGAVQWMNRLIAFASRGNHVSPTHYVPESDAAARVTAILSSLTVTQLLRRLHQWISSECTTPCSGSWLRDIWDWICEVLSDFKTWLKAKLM

Assay [14] concerns the target T14, Bait polypeptide of SEQ ID No 101, NS4B (9%)/NS5A (90%), HCV strain H77 nt 6188-6939 (hepatitis C virus strain H77, UniProt P27958 1950-2198).
T14 construct: also called Bait NS4B (9%)/NS5A (90%)
T14 chain: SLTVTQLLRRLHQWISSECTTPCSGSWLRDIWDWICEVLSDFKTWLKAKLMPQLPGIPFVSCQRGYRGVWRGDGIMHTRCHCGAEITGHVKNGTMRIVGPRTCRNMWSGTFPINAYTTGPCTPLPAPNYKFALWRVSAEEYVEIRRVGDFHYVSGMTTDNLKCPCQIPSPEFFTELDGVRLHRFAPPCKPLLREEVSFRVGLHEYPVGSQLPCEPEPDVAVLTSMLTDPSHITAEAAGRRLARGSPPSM

Assay [15] has as its target T15, Bait polypeptide of SEQ ID No 89, NS3 (100%), HCV strain H77 nt 4691-5168 (hepatitis C virus strain H77, UniProt P26664 1451-1608).
T15 construct: also called Bait NS3 (100%)
T15 chain: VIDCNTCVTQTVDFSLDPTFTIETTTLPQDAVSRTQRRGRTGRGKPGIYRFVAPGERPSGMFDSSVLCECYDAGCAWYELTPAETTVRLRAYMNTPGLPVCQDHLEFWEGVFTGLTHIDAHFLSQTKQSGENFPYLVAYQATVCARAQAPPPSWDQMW

B1: SID polypeptide of SEQ ID No 2, NS3 (100%), HCV strain H77 nt 4814-4922 (other)
chain: GRGKPGIYRFVAPGERPSGMFDSSVLCECYDAGCA
notes: Intersection of yeast two-hybrid prey fragments; also called SID NS3 (100%)
In the case of B1, the binding result in assay [1] is on record as “binds”.

B2: SID polypeptide of SEQ ID No 12, NS5B (100%), HCV strain H77 nt 7979-8109 (other)
chain: not shown
notes: Intersection of yeast two-hybrid prey fragments; also called SID NS5B (100%)
For the molecule B2, the binding result in assay [2] was “binds”.

B3: SID polypeptide of SEQ ID No 15, E2 (100%), HCV strain H77 nt 1871-1968 (other)
chain: PSPVVVGTTDRSGAPTYSWGANDTDVFVLNN
notes: Intersection of yeast two-hybrid prey fragments; also called SID E2 (100%)
As for B3, the binding result in assay [3] was “binds”.

B4: SID polypeptide of SEQ ID No 20, NS5B (100%), HCV strain H77 nt 9083-9222 (other)
chain: not shown
notes: as for B2
As to B4, in [4], the binding result is “binds”.

B5: SID polypeptide of SEQ ID No 22, E2 (100%), HCV strain H77 nt 1823-1955 (other)
chain: GIVPAKSVCGPVYCFTPSPVVVGTTDRSGAPTYSWGANDTDVF
notes: as for B3
In the case of B5, the binding result in assay [5] was “binds”.

B6: Bait polypeptide of SEQ ID No 91, NS3 (1%)/NS4A (98%), HCV strain H77 nt 5310-5467 (other)
chain: TSTWVLVGGVLAALAAYCLSTGCVVIVGRIVLSGKPAIIPDREVLYQEFDE
notes: also called Bait NS3 (1%)/NS4 A (98%)
Turning to B6, in [6], the binding result was “binds”.

B7: SID polypeptide of SEQ ID No 27, NS3 (100%), HCV strain H77 nt 4784-4928 (other)
chain: VSRTQRRGRTGRGKPGIYRFVAPGERPSGMFDSSVLCECYDAGCAWY
notes: as for B1
As for B7, in [7], the binding result was “binds”.

B8: SID polypeptide of SEQ ID No 1, Core (100%), HCV strain H77 nt 446-600 (other)
chain: LLPRRGPRLGVRATRKTSERSQPRGRRQPIPKARRPEGRTWAQPGYPWPL
notes: Intersection of yeast two-hybrid prey fragments; also called SID Core (100%)
For the molecule B8, in assay [8], the binding result is listed as “binds”.

B9: SID polypeptide of SEQ ID No 25, E1 (100%), HCV strain H77 nt 1226-1458 (other)
chain: RRHWTTQDCNCSIYPGHITGHRMAWDMMMNWSPTAALVVAQLLRIPQAIMDMIAGAHWGVLAGIAYFSMVGNWAKV
notes: Intersection of yeast two-hybrid prey fragments; also called SID E1 (100%)
Turning to B9, the binding result in [9] was “binds”.

B10: SID polypeptide of SEQ ID No 21, NS4B (100%), HCV strain H77 nt 5819-6080 (other)
chain: TAFVGAGLAGAAIGSVGLGKVLVDILAGYGAGVAGALVAFKIMSGEVPSTEDLVNLLPAILSPGALVVGVVCAAILRRHVGPGEGA
notes: Intersection of yeast two-hybrid prey fragments; also called SID NS4B (100%)
Turning to B10, the binding result in assay [10] is “binds”.

B11: SID polypeptide of SEQ ID No 3, Core (100%), HCV strain H77 nt 380-616 (other)
chain: NTNRRPQDVKFPGGGQIVGGVYLLPRRGPRLGVRATRKTSERSQPRGRRQPIPKARRPEGRTWAQPGYPWPLYGNEG
notes: as for B8
Regarding B11, in assay [1], the binding result is listed as “binds”.

B12: Bait polypeptide of SEQ ID No 98, NS4B (30%)/NS5A (69%), HCV strain H77 nt 6107-6605 (other)
chain: ASRGNHVSPTHYVPESDAAARVTAILSSLTVTQLLRRLHQWISSECTTPCSGSWLRDIWDWICEVLSDFKTWLKAKLMPQLPGIPFVSCQRGYRGVWRGDGIMHTRCHCGAEITGHVKNGTMRIVGPRTCRNMWSGTFPINAYTTGPCTPLPAPNYKFALWRVSA
notes: also called Bait NS4B (30%)/NS5A (69%)
Take B12: the binding result in assay [11] was “binds”.

B13: Bait polypeptide of SEQ ID No 103, NS5A (100%), HCV strain H77 nt 6440-6727 (other)
chain: EITGHVKNGTMRIVGPRTCRNMWSGTFPINAYTTGPCTPLPAPNYKFALWRVSAEEYVEIRRVGDFHYVSGMTTDNLKCPCQIPSPEFFTELDG
notes: also called Bait NS5A (100%)
B13: the binding result in [12] is given as “binds”.

B14: SID polypeptide of SEQ ID No 18, NS4B (53%)/NS5A (46%), HCV strain H77 nt 6197-6310 (other)
chain: VTQLLRRLHQWISSECTTPCSGSWLRDIWDWICEVL
notes: Intersection of yeast two-hybrid prey fragments; also called SID NS4B (53%)/NS5A (46%)
As for B14, the binding result in [13] is “binds”.

B15: SID polypeptide of SEQ ID No 26, NS4B (70%)/NS5A (28%), HCV strain H77 nt 6176-6291 (other)
chain: AILSSLTVTQLLRRLHQWISSECTTPCSGSWLRDIWD
notes: Intersection of yeast two-hybrid prey fragments; also called SID NS4B (70%)/NS5A (28%)
On to B15, for which the binding result in [14] is “binds”.

B16: SID polypeptide of SEQ ID No 14, E2 (100%), HCV strain H77 nt 1784-1888 (other)
chain: ERPYCWHYPPRPCGIVPAKSVCGPVYCFTPSPV
notes: as for B3
Regarding B16, in [15], the binding result is listed as “binds”.
